Target: T1, human asialoglycoprotein receptor 1 (ASGR1) (human, UniProt P07306 1-291)
T1 construct: whole, on cells; The cells were fixed in formaldehyde before staining; also called hASGR1; HL-1
T1 sequence (looked up): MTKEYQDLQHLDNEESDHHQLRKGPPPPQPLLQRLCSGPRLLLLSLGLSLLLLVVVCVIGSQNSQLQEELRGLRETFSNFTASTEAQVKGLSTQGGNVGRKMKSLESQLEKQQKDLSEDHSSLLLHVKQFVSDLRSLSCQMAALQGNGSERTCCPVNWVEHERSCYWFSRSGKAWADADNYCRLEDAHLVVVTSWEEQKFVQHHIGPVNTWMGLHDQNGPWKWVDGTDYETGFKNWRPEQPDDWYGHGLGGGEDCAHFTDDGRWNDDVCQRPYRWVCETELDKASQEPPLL
Assay: immunofluorescence on formaldehyde-fixed Hep3B or HepG2 cells, Alexa488 anti-human IgG secondary, high-content imaging
Procedure: The siRNA molecules in Tier 1 and Tier 2 screening sets were synthesized without chemical modifications. Each siRNA molecule was comprised of a 21 nucleotide sense strand and 21 nucleotide antisense strand that hybridized to form a duplex region of 19 base pairs with a 2 nucleotide overhang at the 3' end of each strand. The efficacy of each of the siRNA molecules in reducing ASGR1 expression was assessed using a 384-well format in vitro immunoassay, which quantifies levels of ASGR1 protein on the cell surface of Hep3B or HepG2 cells.
Transfection complexes of the siRNA molecules and RNAiMax transfection reagent (Life Technologies) in EMEM media (ATCC 30-2003) were prepared in 384-well plates in accordance with manufacturer's recommendations. Human hepatocellular carcinoma Hep3B (ATCC HB-8064) or HepG2 (ATCC HB-8065) cells in EMEM media supplemented with 10% fetal bovine serum and 1% antibiotic/antimycotic were added to each well. Cells were incubated for 4 days at 37° C. and 5% CO_2. […] Data was analyzed using Columbus image analysis software and GeneData Screener software to quantify several measures of ASGR1 protein levels, cell count, and cell morphology on a per cell and per well basis.

binding result: binds
B1: anti-ASGR1 primary antibody (Amgen clone 7E11) (antibody, human IgG1, kappa, N297G, V domains shown)
VH: QVQLVESGGGVVQPGRSLRLSCAASGFTFSSFGMHWVRQAPGKGLEWVAIIWHDGSNKYYADSVKGRFTISRDNSKNTLYLQMSSLRAEDTAVYYCARDLSMGGMDVWGQGTTVTVSS
VL: DIQMTQSPSSLSASVGDRVTIACRASQNIISYLNWYQQKPGKAPKFLIYTASSLQSGVPSRFSGSGSGTDFTLTISSLQPEDFAIYYCQQTYSTPLTFGGGTKVEIKR
notes: It was used as a staining reagent and detected with an Alexa488-conjugated anti-human IgG secondary antibody
